Earlier results, collected in publication PMC9739296.

Target: DR4 (Homo sapiens) (UniProt O00220)
Chain of UniProt O00220 (O00220 24-468): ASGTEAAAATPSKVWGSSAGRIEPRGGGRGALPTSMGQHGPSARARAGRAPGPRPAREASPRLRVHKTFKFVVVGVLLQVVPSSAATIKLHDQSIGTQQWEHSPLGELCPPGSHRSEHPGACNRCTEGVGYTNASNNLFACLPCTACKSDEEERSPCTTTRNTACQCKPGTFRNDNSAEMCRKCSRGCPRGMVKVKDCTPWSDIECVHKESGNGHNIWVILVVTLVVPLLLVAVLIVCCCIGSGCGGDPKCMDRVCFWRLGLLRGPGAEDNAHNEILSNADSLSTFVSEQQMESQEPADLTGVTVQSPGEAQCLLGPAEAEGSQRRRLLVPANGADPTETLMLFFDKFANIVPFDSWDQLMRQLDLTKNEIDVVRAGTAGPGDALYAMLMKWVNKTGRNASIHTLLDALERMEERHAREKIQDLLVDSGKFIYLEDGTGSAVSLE

For TRAIL (from UniProt P50591), the Kd is listed as 70 nM.
